Test results from paper PMC7481392, “Identification of MltG as a Prc Protease Substrate Whose Dysregulation Contributes to the Conditional Growth Defect of Prc-Deficient Escherichia coli” (Frontiers in Microbiology, 2020).
Substitutions are numbered along the chain they refer to.

T1: Prc protease (wild type), C-terminally His6-tagged (E. coli, UniProt P23865 23-682, Dylight 549 NHS ester on amines)
T1 construct: Prc (Tsp), periplasmic protease of Escherichia coli, 76 kDa; encoded on pTR147 (Spiers et al., 2002); also called Tsp; Prc (WT); source: E. coli DH5α harboring pTR147, purified (Ni-NTA)
T1 sequence (looked up): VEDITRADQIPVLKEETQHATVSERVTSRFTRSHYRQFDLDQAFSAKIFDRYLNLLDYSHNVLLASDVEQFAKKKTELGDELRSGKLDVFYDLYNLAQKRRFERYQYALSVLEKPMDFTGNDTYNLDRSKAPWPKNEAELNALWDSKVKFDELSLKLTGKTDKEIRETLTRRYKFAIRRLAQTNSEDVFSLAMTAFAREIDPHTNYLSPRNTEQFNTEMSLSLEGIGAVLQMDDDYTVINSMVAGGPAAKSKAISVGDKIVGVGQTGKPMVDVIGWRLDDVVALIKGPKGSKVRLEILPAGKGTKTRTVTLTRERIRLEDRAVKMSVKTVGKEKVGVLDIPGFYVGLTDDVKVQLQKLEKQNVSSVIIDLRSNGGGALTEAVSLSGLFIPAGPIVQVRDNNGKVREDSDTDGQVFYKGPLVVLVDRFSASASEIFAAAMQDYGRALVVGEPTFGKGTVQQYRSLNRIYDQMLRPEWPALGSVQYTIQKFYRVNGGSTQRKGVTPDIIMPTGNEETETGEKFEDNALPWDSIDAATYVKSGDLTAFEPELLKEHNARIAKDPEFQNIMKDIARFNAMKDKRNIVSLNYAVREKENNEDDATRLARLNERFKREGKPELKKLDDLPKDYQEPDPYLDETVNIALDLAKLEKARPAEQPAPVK

T2: K455A-Prc, catalytically inactive Prc mutant, C-terminally His6-tagged (E. coli, UniProt P23865 23-682, K455A, Dylight 549 NHS ester on amines (array assay only))
T2 construct: Prc (Tsp), periplasmic protease of Escherichia coli, with K455A; encoded on pTR163 (Spiers et al., 2002); The same construct was used purified and labelled on the array, and unlabelled in lysate for the co-IP; source: E. coli DH5α harboring pTR163, purified (Ni-NTA); E. coli ΔmltG-BW25113 harboring pTR163, in lysate; not shown: His6, C-terminal, kept
T2 sequence (looked up): T1 sequence (looked up) with K455A

B1: HupA, N-terminally 6xHis-tagged, from the ASKA ORF library (on the proteome array) (natural protein, E. coli K12, UniProt P0ACF0 1-90, looked up)
chain: MNKTQLIDVIAEKAELSKTQAKAALESTLAAITESLKEGDAVQLVGFGTFKVNHRAERTGRNPQTGKEIKIAAANVPAFVSGKALKDAVK
notes: ORF clone of the ASKA library; source: E. coli, ASKA library clone, purified (Ni-NTA, high-throughput)
B2: YidA, N-terminally 6xHis-tagged, from the ASKA ORF library (on the proteome array) (natural protein, E. coli K12, UniProt P0A8Y5 1-270, looked up)
chain: MAIKLIAIDMDGTLLLPDHTISPAVKNAIAAARARGVNVVLTTGRPYAGVHNYLKELHMEQPGDYCITYNGALVQKAADGSTVAQTALSYDDYRFLEKLSREVGSHFHALDRTTLYTANRDISYYTVHESFVATIPLVFCEAEKMDPNTQFLKVMMIDEPAILDQAIARIPQEVKEKYTVLKSAPYFLEILDKRVNKGTGVKSLADVLGIKPEEIMAIGDQENDIAMIEYAGVGVAMDNAIPSVKEVANFVTKSNLEDGVAFAIEKYVLN
notes: YidA, sugar phosphatase, E. coli K12; ORF clone of the ASKA library; source: E. coli, ASKA library clone, purified (Ni-NTA, high-throughput)
B3: RfaD, N-terminally 6xHis-tagged, from the ASKA ORF library (on the proteome array) (natural protein, E. coli K12, UniProt P67910 1-310, looked up)
chain: MIIVTGGAGFIGSNIVKALNDKGITDILVVDNLKDGTKFVNLVDLNIADYMDKEDFLIQIMAGEEFGDVEAIFHEGACSSTTEWDGKYMMDNNYQYSKELLHYCLEREIPFLYASSAATYGGRTSDFIESREYEKPLNVYGYSKFLFDEYVRQILPEANSQIVGFRYFNVYGPREGHKGSMASVAFHLNTQLNNGESPKLFEGSENFKRDFVYVGDVADVNLWFLENGVSGIFNLGTGRAESFQAVADATLAYHKKGQIEYIPFPDKLKGRYQAFTQADLTNLRAAGYDKPFKTVAEGVTEYMAWLNRDA
notes: RfaD, ADP-L-glycero-D-manno-heptose-6-epimerase, E. coli K12; ORF clone of the ASKA library; source: E. coli, ASKA library clone, purified (Ni-NTA, high-throughput)
B4: YaaW, N-terminally 6xHis-tagged, from the ASKA ORF library (on the proteome array) (natural protein, E. coli K12, UniProt P75617 1-237, looked up)
chain: MNVNYLNDSDLDFLQHCSEEQLANFARLLTHNEKGKTRLSSVLMRNELFKSMEGHPEQHRRNWQLIAGELQHFGGDSIANKLRGHGKLYRAILLDVSKRLKLKADKEMSTFEIEQQLLEQFLRNTWKKMDEEHKQEFLHAVDARVNELEELLPLLMKDKLLAKGVSHLLSSQLTRILRTHAAMSVLGHGLLRGAGLGGPVGAALNGVKAVSGSAYRVTIPAVLQIACLRRMVSATQV
notes: YaaW, function E. coli K12; ORF clone of the ASKA library; source: E. coli, ASKA library clone, purified (Ni-NTA, high-throughput)
B5: YdhS, N-terminally 6xHis-tagged, from the ASKA ORF library (on the proteome array) (natural protein, E. coli K12, UniProt P77148 1-534, looked up)
chain: MKKIAIVGAGPTGIYTLFSLLQQQTPLSISIFEQADEAGVGMPYSDEENSKMMLANIASIEIPPIYCTYLEWLQKQEDSHLQRYGVKKETLHDRQFLPRILLGEYFRDQFLRLVDQARQQKFAVAVYESCQVTDLQITNAGVMLATNQDLPSETFDLAVIATGHVWPDEEEATRTYFPSPWSGLMEAKVDACNVGIMGTSLSGLDAAMAVAIQHGSFIEDDKQHVVFHRDNASEKLNITLLSRTGILPEADFYCPIPYEPLHIVTDQALNAEIQKGEEGLLDRVFRLIVEEIKFADPDWSQRIALESLNVDSFAQAWFAERKQRDPFDWAEKNLQEVERNKREKHTVPWRYVILRLHEAVQEIVPHLNEHDHKRFSKGLARVFIDNYAAIPSESIRRLLALREAGIIHILALGEDYKMEINESRTVLKTEDNSYSFDVFIDARGQRPLKVKDIPFPGLREQLQKTGDEIPDVGEDYTLQQPEDIRGRVAFGALPWLMHDQPFVQGLTACAEIGEAMARAVVKPASRARRRLSFD
notes: YdhS, function E. coli K12; ORF clone of the ASKA library; source: E. coli, ASKA library clone, purified (Ni-NTA, high-throughput)
B6: YfaU, N-terminally 6xHis-tagged, from the ASKA ORF library (on the proteome array) (natural protein, E. coli K12, UniProt P76469 1-267, looked up)
chain: MNALLSNPFKERLRKGEVQIGLWLSSTTAYMAEIAATSGYDWLLIDGEHAPNTIQDLYHQLQAVAPYASQPVIRPVEGSKPLIKQVLDIGAQTLLIPMVDTAEQARQVVSATRYPPYGERGVGASVARAARWGRIENYMAQVNDSLCLLVQVESKTALDNLDEILDVEGIDGVFIGPADLSASLGYPDNAGHPEVQRIIETSIRRIRAAGKAAGFLAVAPDMAQQCLAWGANFVAVGVDTMLYSDALDQRLAMFKSGKNGPRIKGSY
notes: YfaU (RhmA), 2-keto-3-deoxy-L-rhamnonate aldolase, E. coli K12; ORF clone of the ASKA library; also called RhmA; source: E. coli, ASKA library clone, purified (Ni-NTA, high-throughput)
B7: YacF, N-terminally 6xHis-tagged, from the ASKA ORF library (on the proteome array) (natural protein, E. coli K12, UniProt P36680 1-247, looked up)
chain: MQTQVLFEHPLNEKMRTWLRIEFLIQQLTVNLPIVDHAGALHFFRNVSELLDVFERGEVRTELLKELDRQQRKLQTWIGVPGVDQSRIEALIQQLKAAGSVLISAPRIGQFLREDRLIALVRQRLSIPGGCCSFDLPTLHIWLHLPQAQRDSQVETWIASLNPLTQALTMVLDLIRQSAPFRKQTSLNGFYQDNGGDADLLRLNLSLDSQLYPQISGHKSRFAIRFMPLDTENGQVPERLDFELACC
notes: YacF (ZapD), cell division protein, E. coli K12; ORF clone of the ASKA library; also called ZapD; source: E. coli, ASKA library clone, purified (Ni-NTA, high-throughput)
B8: YegV, N-terminally 6xHis-tagged, from the ASKA ORF library (on the proteome array) (natural protein, E. coli K12, UniProt P76419 1-321, looked up)
chain: MSGARLHTLLPELTTRQSVMVVGAAVIDVIADAYALPWRGCDIELKQQSVNVGGCALNIAVALKRLGIEAGNALPLGQGVWAEMIRNRMAKEGLISLIDNAEGDNGWCLALVEPDGERTFMSFSGVENQWNRQWLARLTVAPGSLLYFSGYQLASPCGELLVEWLEELQDVTPFIDFGPRIGDIPDALLARIMACRPLVSLNRQEAEIAAERFALSAEITTLGKQWQEKFAAPLIVRLDKEGAWYFSNDASGCIPAFPTQVVDTIGAGDSHAGGVLAGLASGLPLADAVLLGNAVASWVVGHRGGDCAPTREELLLAHKNV
notes: YegV, putative sugar kinase, E. coli K12; ORF clone of the ASKA library; source: E. coli, ASKA library clone, purified (Ni-NTA, high-throughput)
B9: TyrA, N-terminally 6xHis-tagged, from the ASKA ORF library (on the proteome array) (natural protein)
chain: not shown
notes: TyrA, fused chorismate mutase/prephenate dehydrogenase, E. coli K12; ORF clone of the ASKA library; source: E. coli, ASKA library clone, purified (Ni-NTA, high-throughput)

What follows are binders tested against T1, Prc protease (wild type), C-terminally … (assay: peptide or protein array; E. coli K12 proteome array (N-terminally His6-tagged ASKA proteins spotted in duplicate on slides), blocked with 1% BSA in TBS, probed with 1 μM Dylight 549-labelled Prc variant in PBS pH 7.4 with 1% BSA, RT, 1 h; washed with TBS-T; triplicate). Conditions: both partners purified.

Q: Does B1 bind?
A: binds

Q: Does B2 bind?
A: binds

Q: Does B3 bind?
A: binds

Q: Does B4 bind?
A: binds

Q: Does B5 bind?
A: binds

Q: Does B6 bind?
A: binds

The binders below were run against T2, K455A-Prc, catalytically inactive Prc … in the same assay as above. Conditions: both partners purified.

Q: Does B7 bind?
A: binds

Q: Does B2 bind?
A: binds

Q: Does B8 bind?
A: binds

Q: Does B9 bind?
A: binds

Q: Does B4 bind?
A: binds

Q: Does B6 bind?
A: binds
